Results as given in the supplement of paper PMC9170038.

Tested on: MS2 coat protein
Assay: apparent KD of MS2 coat protein; designed switch direction (-1 OFF switch, 1 ON switch): 1; higher = weaker reporter binding
Summary of the method: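 Apparent KD, taken as the median over clusters for each design, was obtained by curve-fitting normalised cluster fluorescence. Designed RNA switches had been transcribed on Illumina chips by stalled E. coli RNA polymerase and titrated with SNAP-549-labelled MS2 coat protein, doubling from 0.7 or 1.5 nM to 3 µM.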

[1] = Eterna round: R95, input ligand: FMN 200 uM
[2] = Eterna round: R95, input ligand: microRNA oligo, concentration not stated
[3] = Eterna round: R95, input ligand: none
[4] = input ligand: microRNA oligo, concentration not stated

| Sequence | apparent KD of MS2 coat protein [1] [nM] | apparent KD of MS2 coat protein [2] [nM] | apparent KD of MS2 coat protein [3] [nM] | apparent KD of MS2 coat protein [4] [nM] | apparent KD of MS2 coat protein (input ligand: FMN 200 uM) [nM] | apparent KD of MS2 coat protein (input ligand: none) [nM] |
| --- | --- | --- | --- | --- | --- | --- |
| AUUUAACAAGCUUUUUGCUCGUCUUAUAAACAUGAGGAUCACCCAUGUAAUAGCGUGAGAGUAAAUUUAUAAAUAAU [JMF 88] (puzzle: Sensor for hsa-mir-208a) | 15.7 | 42.5 | 14.7 |  |  |  |
| GAGUGGUGGAGAGGAUAUACAUUGUUAUUCACUGUAGAAGGUUCUAACAUGAGGAUCACCCAUGUAGGACUAUUCCUGUGUUUU [Parity 57 - Jieux - Same State NG 1] (Eterna round: R96, puzzle: Same State NG 1) |  |  |  | 9.37 |  |  |
| UGAAUGGUGAUAGGAUAUACAUGAGGAAUCCUCGUAGAAGGAUCAUGACAUGAGGAUCACCCAUGUAGCGCUCAGAAGAGCGCA [Mat - Same State NG 1 - JL mod - D53] (Eterna round: R96, puzzle: Same State NG 1) |  |  |  | 42.4 | 129 | 83.9 |
| GGAAUAUGAUGUUACAUGAGGAUCACCCAUGUAGUGAUAACUAAGGAUAUUUGAAAGGAAGGAGAAGAGAAGGUAGGAUCAUAA [AK SSNG3-V2-12] (Eterna round: R96, puzzle: Same State NG 3) |  |  |  | 34.3 | 50.9 | 55.4 |
| GACAAUCUAUCUGAGGAUAUCAUGAAGAAAACAUGAGGAUCACCCAUGUGCAGGAUAACUGCAAAUGAGAAGGCAGAUAGAUUGG [Mat - Same State 2 - Mod - D3] (puzzle: Same State 2) | 10.9 | 16.8 | 20 |  |  |  |
| AACAAUCUAUCUGAGGAUAUCAUGAAAAAAACAUGAGGAUCACCCAUGUGCAGGAAAACUGCAUAUGAGAAGGCAGAUAGAUUGA [SS2: 1101] (Eterna round: R96, puzzle: Same State 2) |  |  |  | 490 |  |  |
| UUGCGCUGUCGAGAGGAUAUGCGGUGAUGGACAUGAGGAUCACCCAUGUUAGCGAUAGCAUUACGGUAGAAGGCUCUUCAGCUGC [salish99_ss2_r3_095] (puzzle: Same State 2) | 16.2 | 21.8 | 26.2 |  |  |  |
| AACGGUGCUUGAAAUAGUCACAUGAGGAUCACCCAUGUUAGGCAGGAUAUGUGUCUAAGACGACCGCAGAAGGGCUCAAGCGAU [Eternabot solution 41] (Eterna round: R96, puzzle: Same State NG 3) |  |  |  | 26.9 | 49.5 | 34.6 |
| CGCCAGAGAGCAGGAUAUGGGCCACAGCCUAAGGGCUGUGAACUCACAUGAGGAUCACCCAUGUCCCAGAAGGGCUCCUAGCUA [Erzabe] (Eterna round: R96, puzzle: Same State NG 2) |  |  |  | 701 | 203 | 1920 |
| ACAUGAAAUGCAGGAUAUUUUGUACCUACAUGUGACAUGAGGAUCACCCAUGUGGUAAGUAUAAGAGAGAAGGGUAAGAUAUGU [Equivalence 3 - Jieux - Same State NG 2] (Eterna round: R96, puzzle: Same State NG 2) |  |  |  | 48.3 | 60.6 | 72.3 |
| CGUCGUUUGAUAGGAUAUCGCUUUACAUGAGGAUCACCCGGGUUUACCACGCUGGUUUUUCUUUCCGAGAAGGAUUCUGAUGUU [salish99_SSNG02_r04_028] (Eterna round: R96, puzzle: Same State NG 2) |  |  |  | 20.7 | 117 | 29 |
| GCCAUCGAGUGAGGAUAUGGCACCGUUUCGGUGCCAGAAGGCAUGUCAAUUGACAUGAGGAUCACCCAUGUAUUAUCGAUGGCA [JL Fiskers NG1ss - 33 mod 4] (Eterna round: R96, puzzle: Same State NG 1) |  |  |  | 556 | 75.4 | 835 |
| CUUUUUAAUGCAGGAUAUGAUCAACAUGAGGAUCACCCAUGUGGUGUUGUGAGUAAGGAGAGUGAUCAGAAGGGCAUCUUCUCA [SS-NG2-LRO05] (Eterna round: R96, puzzle: Same State NG 2) |  |  |  | 133 | 301 | 169 |
| CUGAGCAAUCGAGGAUAUCACGUCGAUUAGACGUGAGAAGGCGAUCAUAACAUGAGGAUCACCCAUGUAUUACAUGAAGCUCAG [SSNG1/4-A2] (Eterna round: R96, puzzle: Same State NG 1) |  |  |  | 12.9 | 15.3 | 20.3 |
| GUUAUACAUGAGGAUCACCCAUGUCAAUGUAGUCGAGGAUAUGGGCAGCUGUGAGGCGUACUAGAAGGCGAAGAGG [JL-ss1-3.10 ViennaUCT mod] (puzzle: Same State 1) | 86.1 | 198 | 170 |  |  |  |
| UCUUGGUUUUUGCUCGUUUUUUGUGUUGAACAUGAGGAUCACCCAUGUAUUGUACAAUCCAAUUUAAUAAUGGUCCG [JMF 48] (puzzle: Sensor for hsa-mir-208a) | 74.7 | 81.7 | 94 |  |  |  |

| Sequence | apparent KD of MS2 coat protein [1] [nM] | apparent KD of MS2 coat protein [2] [nM] | apparent KD of MS2 coat protein [3] [nM] | apparent KD of MS2 coat protein [4] [nM] | apparent KD of MS2 coat protein (input ligand: FMN 200 uM) [nM] | apparent KD of MS2 coat protein (input ligand: none) [nM] |
| --- | --- | --- | --- | --- | --- | --- |
| CUCAACAACACAGGAUAUCCAGGGAAAAGAACUGGAGAAGGGUGACCAACAUGAGGAUCACCCAUGUGAUAGCUAGGCUGUCUG [Lararariso] (Eterna round: R96, puzzle: Same State NG 1) |  |  |  | 191 | 24 | 1300 |
| AUUGGGUAACGAGGAUAUCGUUUUUGUUUUCUUCGAGAAGGCGUUAUAGUUUAUUUCUAUUGUUACAUGAGGAUCACCCAUGUU [JR_SSNG1_Sub054] (Eterna round: R96, puzzle: Same State NG 1) |  |  |  | 16.5 | 15.2 | 24.1 |
| AGCGCGGUCUCGCAGGAUAUCCACAUUCCUACAUGAGGAUCACCCAUGUCGCUGCAGGAUAUUAGGGAGAAGGGUGAUGCCGCGG [Quesed] (puzzle: Same State 2) | 22.7 | 42.7 | 48.4 |  |  |  |
| UUUCUUCUCGUAGGAUAUGUAGGAUAUGCCUACAUGAGGAUCACCCAUGUUCGCAUGGCAGAAGGACAGAAGGACGAUCACCCU [pwkr ssNG2 2FMN + 1F5.9] (Eterna round: R96, puzzle: Same State NG 2) |  |  |  | 234 | 55.4 | 502 |
| GUGGUCAGACAUGAGGAUCACCCAUGUGGAAUAAAUAACAGACAGGAUAUUUAAUAUAGGAUAUAAAAGAAGGGUCGAUUGGUG (Eterna round: R96, puzzle: Same State NG 3) |  |  |  | 98.9 | 110 | 116 |
| AGUGGAGCCUGAGCUCCACAAAAGCAUGUACAUGAGGAUCACCCAUGUCAUGUACAAGCUUUUUGCUCGUCUUAAAA [Mat - hsa-mir-208a - Mod of JL - D18] (puzzle: Sensor for hsa-mir-208a) | 536 | 18.8 | 423 |  |  |  |
| GCUGGAAACUACAUGAGGAUCACCCAUGUUCCGGAAACGGCACAGGAUAUCUGUCCGAAAAGGUCAGAGAAGGGUGAAACCAGC [Fiskers NG3ss - 84] (Eterna round: R96, puzzle: Same State NG 3) |  |  |  | 90.3 | 106 | 1020 |
| AACCCAGUGGAAGGAUAUGGCACCUUAUUGGUGCCAGAAGGUCCUAACAUGAGGAUCACCCAUGUGGGCCGGUCGAAAGACCGG [Fiskers NG1ss - 10] (Eterna round: R96, puzzle: Same State NG 1) |  |  |  | 242 | 101 | 338 |
| GGAGCCGGCACUGAGGAUAUUCAUAUUAAAACAUGAGGAUCACCCAUGUAGGCCAGAAGGCCUUGGGAGAAGGCGGGUCGGCCCG [Bibimoar - 3] (puzzle: Same State 2) | 27.2 | 360 | 647 |  |  |  |
| UUCUUACAUGAGGAUCACCCAUGUGUUGUCGUGGGAGGAUAUCCUGGUUCGGUGGCGUUGGGAGAAGGCCUAUGUU [× ×•×ª×• ×ž×“×™× ×” × ×—×ª-19] (puzzle: Same State 1) | 476 | 134 | 376 |  |  |  |
| ACCCAAAAUACAUGGGAACAAGCUUUUUAACAUGAGGAUCACCCAUGUACUCGUCUUAUAAGCAGUCGAAAGACUGC [hsa-mir-208a sensor: 113] (Eterna round: R96, puzzle: Sensor for hsa-mir-208a) |  |  |  | 14.6 | 563 | 518 |
| UCACCUAUCGACAUGAGGAUCACCCAUGUGGAUUGAGCUUCCAAGGAUAUCGGCGCACAACCCAUCGAGAAGGUGGAAAGAUAC [Eternabot solution 32] (Eterna round: R96, puzzle: Same State NG 3) |  |  |  | 12.3 | 16.6 | 18 |
| GAUUCACAUGAGGAUCACCCAUGUCGUUUAAUGGGAGGAUAUACGUGGACCGUAGUCCGCGUAGAAGGCCUAAUUG [Mat - Same State 1 - Mod of JL - D24] (puzzle: Same State 1) |  | 74.4 |  |  |  |  |
| AACAAUCUAUCUGAGGAUAUCAUGAAAUAAACAUGAGGAUCACCCAUGUGCAGGAAAACUGCUUAUGAGAAGGCAGAUAGAUUGA [salish99_ss2_r3_047] (puzzle: Same State 2) | 10.3 | 12.6 | 12.2 |  |  |  |
| GAGGCACAUGAGGAUCACCCAUGUGGGCGGAACAUAGGAUAUCGCCAACAAUAAGCCCGGUGAGAAGGAUGAUGCC [Lexereat] (puzzle: Same State 1) | 46.2 | 17.6 | 36.4 |  |  |  |
